T1: Ysh1;Mpe1 (Saccharomyces cerevisiae;Saccharomyces …, UniProt Q06224;P35728 1-779;1-441, |)
T1 sequence 1: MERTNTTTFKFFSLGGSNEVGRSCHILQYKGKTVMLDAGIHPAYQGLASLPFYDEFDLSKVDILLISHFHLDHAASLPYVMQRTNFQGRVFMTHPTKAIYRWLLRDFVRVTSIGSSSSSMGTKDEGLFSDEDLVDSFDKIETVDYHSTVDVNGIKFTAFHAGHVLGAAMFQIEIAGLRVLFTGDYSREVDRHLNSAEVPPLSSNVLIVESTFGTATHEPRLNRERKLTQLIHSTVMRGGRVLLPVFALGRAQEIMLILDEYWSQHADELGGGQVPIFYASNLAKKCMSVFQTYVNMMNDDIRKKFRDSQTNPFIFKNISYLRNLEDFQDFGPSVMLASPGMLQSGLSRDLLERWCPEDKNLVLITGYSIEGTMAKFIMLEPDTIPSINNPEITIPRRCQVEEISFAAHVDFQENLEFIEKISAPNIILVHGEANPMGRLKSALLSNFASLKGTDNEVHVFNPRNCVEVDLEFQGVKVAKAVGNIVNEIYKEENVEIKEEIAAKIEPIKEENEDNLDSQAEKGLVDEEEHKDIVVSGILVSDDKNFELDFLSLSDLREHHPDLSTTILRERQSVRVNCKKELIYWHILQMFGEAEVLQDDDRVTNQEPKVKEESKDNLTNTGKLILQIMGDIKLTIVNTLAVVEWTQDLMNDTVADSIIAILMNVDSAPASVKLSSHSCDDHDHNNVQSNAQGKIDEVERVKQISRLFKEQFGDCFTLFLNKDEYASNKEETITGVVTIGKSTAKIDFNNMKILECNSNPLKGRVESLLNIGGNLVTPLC
T1 sequence 2: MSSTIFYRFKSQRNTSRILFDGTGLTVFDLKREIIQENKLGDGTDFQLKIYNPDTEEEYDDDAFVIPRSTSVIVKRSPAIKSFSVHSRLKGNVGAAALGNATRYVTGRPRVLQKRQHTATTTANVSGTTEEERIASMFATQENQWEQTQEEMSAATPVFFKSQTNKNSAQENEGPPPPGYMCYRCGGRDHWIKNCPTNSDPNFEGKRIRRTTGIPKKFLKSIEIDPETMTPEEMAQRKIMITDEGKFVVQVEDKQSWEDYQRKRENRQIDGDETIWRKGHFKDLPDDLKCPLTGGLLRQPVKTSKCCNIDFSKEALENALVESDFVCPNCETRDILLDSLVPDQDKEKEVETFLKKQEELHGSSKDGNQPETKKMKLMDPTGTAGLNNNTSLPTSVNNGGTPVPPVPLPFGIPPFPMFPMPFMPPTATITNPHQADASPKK

T2: Ysh1;Yjr141w (Saccharomyces cerevisiae;Saccharomyces …, UniProt Q06224;P47172 1-779;1-347, |)
T2 sequence 1: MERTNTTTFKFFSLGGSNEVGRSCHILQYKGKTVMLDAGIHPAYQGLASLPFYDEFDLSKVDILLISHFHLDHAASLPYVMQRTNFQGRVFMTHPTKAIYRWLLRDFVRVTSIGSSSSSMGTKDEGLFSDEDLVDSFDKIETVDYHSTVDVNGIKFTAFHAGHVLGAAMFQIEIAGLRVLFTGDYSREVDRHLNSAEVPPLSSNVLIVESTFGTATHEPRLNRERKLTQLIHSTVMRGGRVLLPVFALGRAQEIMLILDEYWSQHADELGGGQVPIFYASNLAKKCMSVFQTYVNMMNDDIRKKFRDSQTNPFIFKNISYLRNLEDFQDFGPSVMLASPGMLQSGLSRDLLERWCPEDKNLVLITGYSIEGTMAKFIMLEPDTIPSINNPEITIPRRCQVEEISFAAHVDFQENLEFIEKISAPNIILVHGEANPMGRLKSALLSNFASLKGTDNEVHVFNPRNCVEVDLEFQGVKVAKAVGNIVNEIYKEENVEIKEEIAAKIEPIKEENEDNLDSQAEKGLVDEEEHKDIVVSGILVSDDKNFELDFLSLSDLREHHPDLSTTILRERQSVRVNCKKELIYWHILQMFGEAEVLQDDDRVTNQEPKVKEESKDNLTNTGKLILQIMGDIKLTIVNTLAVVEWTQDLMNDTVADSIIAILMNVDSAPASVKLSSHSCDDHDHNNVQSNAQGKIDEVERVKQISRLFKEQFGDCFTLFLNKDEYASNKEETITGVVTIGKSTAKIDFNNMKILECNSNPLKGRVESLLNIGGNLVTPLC
T2 sequence 2: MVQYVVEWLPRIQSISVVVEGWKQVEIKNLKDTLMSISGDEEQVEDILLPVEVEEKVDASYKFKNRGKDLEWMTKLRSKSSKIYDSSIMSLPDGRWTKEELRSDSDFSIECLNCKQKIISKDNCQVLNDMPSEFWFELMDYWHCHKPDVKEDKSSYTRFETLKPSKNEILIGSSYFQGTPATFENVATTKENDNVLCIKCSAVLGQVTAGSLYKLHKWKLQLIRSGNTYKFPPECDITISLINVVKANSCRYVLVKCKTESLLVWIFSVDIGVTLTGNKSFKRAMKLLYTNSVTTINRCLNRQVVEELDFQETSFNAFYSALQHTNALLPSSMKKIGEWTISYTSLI


How the values were obtained:
Ysh1;Mpe1 = target: T1, Ysh1;Mpe1; assay: EMSA; EMSA: 50 nM RNA, 0.25-4.0 uM protein, protein diluted in 10 mM HEPES pH 7.9, 150 mM NaCl, 0.5 mM Mg(OAc)2, plus 1x loading dye (orange G, glycerol, EDTA); 30 min on ice; native 6% acrylamide/TBE PAGE; conditions: protein: recombinant;recombinant; tags: ;3C-SII (C-terminal) in Ysh1-Mpe1 complexes; untagged in CPFcore; copies: 1;1; label: 5'-FAM
Ysh1;Yjr141w = target: T2, Ysh1;Yjr141w; assay: as above; conditions: protein: recombinant;recombinant; tags: ;SII-3C (N-terminal) in Ysh1-Yjr141w; untagged in Ysh1-Mpe1-Yjr141w; copies: 1;1; label: 5'-FAM
Cft1;Pfs2;Yth1;Fip1;Pap1 = Cft1;Pfs2;Yth1;Fip1;Pap1 (Saccharomyces cerevisiae;Saccharomyces …, UniProt Q06632;P42841;Q06102;P45976;P29468 1-1357;1-465;1-208;1-327;1-568, ||||); assay: EMSA; CPFpol; EMSA: 50 nM RNA, 0.25-4.0 uM protein, protein diluted in 10 mM HEPES pH 7.9, 150 mM NaCl, 0.5 mM Mg(OAc)2, plus 1x loading dye (orange G, glycerol, EDTA); 30 min on ice; native 6% acrylamide/TBE PAGE; conditions: protein: recombinant;recombinant;recombinant;recombinant;recombinant; tags: ;3C-SII;3C-8H; untagged in CPFpol+Cft2;;SII (Pap1-SII) when alone; untagged in CPFpol and CPFcore; copies: 1;2;1;1;1; label: 5'-FAM
[1] = target: Cft1;Pfs2;Yth1;Fip1;Pap1;Cft2;Ysh1;Mpe1 (Saccharomyces cerevisiae;Saccharomyces …, UniProt Q06632;P42841;Q06102;P45976;P29468;Q12102;Q06224;P35728 …, |||||||); assay: EMSA; CPFcore; EMSA: 50 nM RNA, 0.25-4.0 uM protein, protein diluted in 10 mM HEPES pH 7.9, 150 mM NaCl, 0.5 mM Mg(OAc)2, plus 1x loading dye (orange G, glycerol, EDTA); 30 min on ice; native 6% acrylamide/TBE PAGE; conditions: tags: ;3C-SII;3C-8H, untagged in CPFpol+Cft2;;SII (Pap1-SII) when alone, untagged in CPFpol and CPFcore;SII (Cft2-SII) when alone, untagged in CPFpol+Cft2 and CPFcore;;3C-SII (C-terminal) in Ysh1-Mpe1 complexes, copies: 1;2;1;1;1;1;1;1, label: 5'-FAM

Binder	binding result (Ysh1;Mpe1)	binding result (Ysh1;Yjr141w)	binding result (Cft1;Pfs2;Yth1;Fip1;Pap1)	binding result [1]
CCCCCCCCCCCCCCC (ssRNA) [C15]	no binding	no binding	no binding	no binding
UUUUUUUUUUUUUUU (ssRNA) [U15]	no binding	no binding	no binding	no binding
AAAAAAAAAAAAAAA (ssRNA) [A15]	no binding	no binding	binds	binds
GGGGGGGGGGGGGGG (ssRNA) [G15]	binds	no binding	binds	binds
CGUUAUUUAUAUUUCAAAUUUUUCU (ssRNA) [CYC1f EMSA probe]		no binding		binds
AAGAACGUUAUUUAUAUUUCAAAUUUUUCUUUUUU (ssRNA) [CYC1d EMSA probe]		no binding	binds	binds
